Experimental data taken from patent US20230241168A1 (ALPINE IMMUNE SCIENCES, published 2023).

T1: recombinant human APRIL (human, UniProt O75888 105-250, limits assumed)
T1 sequence (looked up): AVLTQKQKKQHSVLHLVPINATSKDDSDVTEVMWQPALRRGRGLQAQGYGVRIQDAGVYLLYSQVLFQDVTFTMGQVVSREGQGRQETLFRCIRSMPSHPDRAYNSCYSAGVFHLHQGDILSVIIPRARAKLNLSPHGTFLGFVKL


Key:
recombinant human APRIL = molecular target: T1, recombinant human APRIL; experiment: cell-based or functional assay
recombinant human BAFF = recombinant human BAFF (human, UniProt Q9Y275 134-285); experiment: cell-based or functional assay

| IC50 (nM) APRIL (recombinant human APRIL) | IC50 (nM) BAFF (recombinant human BAFF) | IC50 BAFF (Δ Parental vTD) (recombinant human BAFF) | IC50 APRIL (Δ Parental vTD) (recombinant human APRIL) | Binder |
| --- | --- | --- | --- | --- |
| 8.63 nM | 0.506 nM | 0.4 ratio | – | CTLA-4 113 GSG4S Fc (G4S)4 TACI 535 (68-110) (Fc fusion) KAMHVAQPAVVFASSHGIASFVCEYASPWKATEVRVTVLRQADSQVTEVCAATYMTGNELTFLDDSICTGTSSGNQVNLTIQGLRAMDTGLYICKVEQMYPPPYLLGIGNGTQIYVIDPEPCPDSDGSGGGGSEPKSSDKTHTCPPCPAPEAEGAPSVFLFPPKPKDTLMISRTPEVTCVVVDVSHEDPEVKFNWYVDGVEVHNAKTKPREEQYNSTYRVVSVLTVLHQDWLNGKEYKCKVSNKALPAPIEKTISKAKGQPREPQVYTLPPSRDELTKNQVSLTCLVKGFYPSDIAVEWESNGQPENNYKTTPPVLDSDGSFFLYSKLTVDKSRWQQGNVFSCSVMHEALHNHYTQKSLSLSPGGGGGSGGGGSGGGGSGGGGSSLSCRKEQGKFYDHLLGDCISCASICGQHPKQCAYFCENKLRS |
| – | 5.18 nM | 2 ratio | – | TACI 528 (EAAAK)6 CTLA 4 668 (other) SLSCRKEQGKFYDHLLRDCISCASICGQHPKQCAYFCENKLRSEAAAKEAAAKEAAAKEAAAKEAAAKEAAAKKAMHVAQPAVVLASSRGIASFVCEYASPGKATEVRVTVLRQADSQVTEVCAATYMMGNELTFLDDSICTGTSSGNQVNLTIQGLRAMDTGLYICKVELMYPPPYYLGIGNGTQIYVIDPEPSPDSDQDYKDDDDKHHHHHH |
| 42.7 nM | 42.7 nM | 1 ratio | 1 ratio | Fc (G4S)2 BCMA (356) (Fc fusion) EPKSSDKTHTCPPCPAPEAEGAPSVFLFPPKPKDTLMISRTPEVTCVVVDVSHEDPEVKFNWYVDGVEVHNAKTKPREEQYNSTYRVVSVLTVLHQDWLNGKEYKCKVSNKALPAPIEKTISKAKGQPREPQVYTLPPSRDELTKNQVSLTCLVKGFYPSDIAVEWESNGQPENNYKTTPPVLDSDGSFFLYSKLTVDKSRWQQGNVFSCSVMHEALHNHYTQKSLSLSPGGGGGSGGGGSLQMAGQCSQNEYFDSLLHACIPCQLRCSSNTPPLTCQRYCNASVTNSVKGTNA |
| 0.696 nM | 5.44 nM | 1 ratio | 1 ratio | Fc (G4S)2 BCMA (357) (Fc fusion) EPKSSDKTHTCPPCPAPEAEGAPSVFLFPPKPKDTLMISRTPEVTCVVVDVSHEDPEVKFNWYVDGVEVHNAKTKPREEQYNSTYRVVSVLTVLHQDWLNGKEYKCKVSNKALPAPIEKTISKAKGQPREPQVYTLPPSRDELTKNQVSLTCLVKGFYPSDIAVEWESNGQPENNYKTTPPVLDSDGSFFLYSKLTVDKSRWQQGNVFSCSVMHEALHNHYTQKSLSLSPGGGGGSGGGGSLQMAGQCSQNEYFDSLLYACIPCQLRCSSNTPPLTCQRYCNASVTNSVKGTNA |
| 4.64 nM | 0.928 nM | 0.5 ratio | 0.9 ratio | CTLA 4 165 GSG4S Fc (G4S)2 TACI 516 (Fc fusion) KAMHVAQPAVVLASSRGIASFVCEYASPGKATEVRVTVLRQADSQVTEVCAASYMMGNELTFPDDSICTGTSSGNQVNLTIQGLRAMDTGLYICKVEQMYPPPYYLGIGNGTQIYVIDPEPCPDSDGSGGGGSEPKSSDKTHTCPPCPAPEAEGAPSVFLFPPKPKDTLMISRTPEVTCVVVDVSHEDPEVKFNWYVDGVEVHNAKTKPREEQYNSTYRVVSVLTVLHQDWLNGKEYKCKVSNKALPAPIEKTISKAKGQPREPQVYTLPPSRDELTKNQVSLTCLVKGFYPSDIAVEWESNGQPENNYKTTPPVLDSDGSFFLYSKLTVDKSRWQQGNVFSCSVMHEALHNHYTQKSLSLSPGGGGGSGGGGSVAMRSCPEEQYWDPLLGTCMSCKTICNHQSQRTCAAFCRSLSCRKEQGKFYDHLLRDCISCASICGQHPKQCAYFCENKLRS |
| 6.75 nM | 1.73 nM | 1 ratio | 1.3 ratio | CTLA 4 92 GSG4S Fc (G4S)2 TACI 516 (Fc fusion) KAMHVAQPAVVLASSRGIASFVCEYASPWKATEVRVTVLRQADSQVTEVCAATYMMGSELTFPDDSICTGTSSGNQVNLTIRGLRAMDTGLYICKVEQMYPPPYLLGIGNGTQIYVIDPEPCPDSDGSGGGGSEPKSSDKTHTCPPCPAPEAEGAPSVFLFPPKPKDTLMISRTPEVTCVVVDVSHEDPEVKFNWYVDGVEVHNAKTKPREEQYNSTYRVVSVLTVLHQDWLNGKEYKCKVSNKALPAPIEKTISKAKGQPREPQVYTLPPSRDELTKNQVSLTCLVKGFYPSDIAVEWESNGQPENNYKTTPPVLDSDGSFFLYSKLTVDKSRWQQGNVFSCSVMHEALHNHYTQKSLSLSPGGGGGSGGGGSVAMRSCPEEQYWDPLLGTCMSCKTICNHQSQRTCAAFCRSLSCRKEQGKFYDHLLRDCISCASICGQHPKQCAYFCENKLRS |
| – | 8.75 nM | 3.4 ratio | – | TACI 516 (G4S)3 CTLA 4 668 (other) VAMRSCPEEQYWDPLLGTCMSCKTICNHQSQRTCAAFCRSLSCRKEQGKFYDHLLRDCISCASICGQHPKQCAYFCENKLRSGGGGSGGGGSGGGGSKAMHVAQPAVVLASSRGIASFVCEYASPGKATEVRVTVLRQADSQVTEVCAATYMMGNELTFLDDSICTGTSSGNQVNLTIQGLRAMDTGLYICKVELMYPPPYYLGIGNGTQIYVIDPEPSPDSDQDYKDDDDKHHHHHH |
| 8.25 nM | 0.566 nM | 0.4 ratio | 1.4 ratio | CTLA-4 113 GSG4S Fc (G4S)4 TACI 688 (29-110) (Fc fusion) KAMHVAQPAVVFASSHGIASFVCEYASPWKATEVRVTVLRQADSQVTEVCAATYMTGNELTFLDDSICTGTSSGNQVNLTIQGLRAMDTGLYICKVEQMYPPPYLLGIGNGTQIYVIDPEPCPDSDGSGGGGSEPKSSDKTHTCPPCPAPEAEGAPSVFLFPPKPKDTLMISRTPEVTCVVVDVSHEDPEVKFNWYVDGVEVHNAKTKPREEQYNSTYRVVSVLTVLHQDWLNGKEYKCKVSNKALPAPIEKTISKAKGQPREPQVYTLPPSRDELTKNQVSLTCLVKGFYPSDIAVEWESNGQPENNYKTTPPVLDSDGSFFLYSKLTVDKSRWQQGNVFSCSVMHEALHNHYTQKSLSLSPGGGGGSGGGGSGGGGSGGGGSVAMRSCPEEQYWDPLLGTCMSCKTICNHQSQRTCAAFCRSLSCRKEQGKFYDHLLGDCISCASICGQHPKQCAYFCENKLRS |
| 0.894 nM | 36.8 nM | 0.9 ratio | 0 ratio | CTLA-4 165 GSG4S Fc (G4S)2 BCMA 356 (Fc fusion) KAMHVAQPAVVLASSRGIASFVCEYASPGKATEVRVTVLRQADSQVTEVCAASYMMGNELTFPDDSICTGTSSGNQVNLTIQGLRAMDTGLYICKVEQMYPPPYYLGIGNGTQIYVIDPEPCPDSDGSGGGGSEPKSSDKTHTCPPCPAPEAEGAPSVFLFPPKPKDTLMISRTPEVTCVVVDVSHEDPEVKFNWYVDGVEVHNAKTKPREEQYNSTYRVVSVLTVLHQDWLNGKEYKCKVSNKALPAPIEKTISKAKGQPREPQVYTLPPSRDELTKNQVSLTCLVKGFYPSDIAVEWESNGQPENNYKTTPPVLDSDGSFFLYSKLTVDKSRWQQGNVFSCSVMHEALHNHYTQKSLSLSPGGGGGSGGGGSLQMAGQCSQNEYFDSLLHACIPCQLRCSSNTPPLTCQRYCNASVTNSVKGTNA |
| 0.809 nM | 33.5 nM | 0.8 ratio | 0 ratio | CTLA-4 92 GSG4S Fc (G4S)2 BCMA 356 (Fc fusion) KAMHVAQPAVVLASSRGIASFVCEYASPWKATEVRVTVLRQADSQVTEVCAATYMMGSELTFPDDSICTGTSSGNQVNLTIRGLRAMDTGLYICKVEQMYPPPYLLGIGNGTQIYVIDPEPCPDSDGSGGGGSEPKSSDKTHTCPPCPAPEAEGAPSVFLFPPKPKDTLMISRTPEVTCVVVDVSHEDPEVKFNWYVDGVEVHNAKTKPREEQYNSTYRVVSVLTVLHQDWLNGKEYKCKVSNKALPAPIEKTISKAKGQPREPQVYTLPPSRDELTKNQVSLTCLVKGFYPSDIAVEWESNGQPENNYKTTPPVLDSDGSFFLYSKLTVDKSRWQQGNVFSCSVMHEALHNHYTQKSLSLSPGGGGGSGGGGSLQMAGQCSQNEYFDSLLHACIPCQLRCSSNTPPLTCQRYCNASVTNSVKGTNA |
| 0.606 nM | 11.8 nM | 2.2 ratio | 0.9 ratio | CTLA-4 165 GSG4S Fc (G4S)2 BCMA 357 (Fc fusion) KAMHVAQPAVVLASSRGIASFVCEYASPGKATEVRVTVLRQADSQVTEVCAASYMMGNELTFPDDSICTGTSSGNQVNLTIQGLRAMDTGLYICKVEQMYPPPYYLGIGNGTQIYVIDPEPCPDSDGSGGGGSEPKSSDKTHTCPPCPAPEAEGAPSVFLFPPKPKDTLMISRTPEVTCVVVDVSHEDPEVKFNWYVDGVEVHNAKTKPREEQYNSTYRVVSVLTVLHQDWLNGKEYKCKVSNKALPAPIEKTISKAKGQPREPQVYTLPPSRDELTKNQVSLTCLVKGFYPSDIAVEWESNGQPENNYKTTPPVLDSDGSFFLYSKLTVDKSRWQQGNVFSCSVMHEALHNHYTQKSLSLSPGGGGGSGGGGSLQMAGQCSQNEYFDSLLYACIPCQLRCSSNTPPLTCQRYCNASVTNSVKGTNA |
| – | 8.41 nM | 3.3 ratio | – | TACI 528 (G4S)3 CTLA 4 668 (other) SLSCRKEQGKFYDHLLRDCISCASICGQHPKQCAYFCENKLRSGGGGSGGGGSGGGGSKAMHVAQPAVVLASSRGIASFVCEYASPGKATEVRVTVLRQADSQVTEVCAATYMMGNELTFLDDSICTGTSSGNQVNLTIQGLRAMDTGLYICKVELMYPPPYYLGIGNGTQIYVIDPEPSPDSDQDYKDDDDKHHHHHH |
| 138 nM | 3.42 nM | 1.3 ratio | 15 ratio | TACI 516 (EAAAK)6 CTLA 4 668 (other) VAMRSCPEEQYWDPLLGTCMSCKTICNHQSQRTCAAFCRSLSCRKEQGKFYDHLLRDCISCASICGQHPKQCAYFCENKLRSEAAAKEAAAKEAAAKEAAAKEAAAKEAAAKKAMHVAQPAVVLASSRGIASFVCEYASPGKATEVRVTVLRQADSQVTEVCAATYMMGNELTFLDDSICTGTSSGNQVNLTIQGLRAMDTGLYICKVELMYPPPYYLGIGNGTQIYVIDPEPSPDSDQDYKDDDDKHHHHHH |
